Where a chain is given by its changes, count along the chain named.
B1: suPAR_DB03_B03 (scFv, V domains shown)
VH: QVQLVQSGAEVKKPGASVKVSCKASGYTFTNYYMHWVRQAPGQGLEWMGWIDPENGSTIYDQKFQGRVTMTRDTSTSTVYMELSSLRSEDTAVYYCARGYDVDWFVYWGQGTLVTVSS
VL: DIQMTQSPSSLSASVGDRVTITCSARSSVSYMYWYQQKPGKAPKLLIYRTSNLASGVPSRFSGSGSGTDFTLTISSLQPEDFATYYCQQYHSYPPTFGGGTKVEIK
notes: screened as scFv
B2: suPAR_DB02_H10 (scFv, V domains shown)
VH: B1 VH with N31S, P53H, E54S, S57N
VL: B1 VL with S27Q
notes: screened as scFv
B3: suPAR_DB02_H08 (scFv, V domains shown)
VH: B1 VH with N31G, M34I
VL: B1 VL
notes: screened as scFv
B4: suPAR_DB03_A03 (scFv, V domains shown)
VH: B1 VH with N31G, P53H, R98V
VL: B1 VL
notes: screened as scFv
B5: suPAR_DB03_A05 (scFv, V domains shown)
VH: B1 VH with T30S, N31S, P53H, S57N, D61A
VL: B1 VL with N52S
notes: screened as scFv
B6: suPAR_DB03_A08 (scFv, V domains shown)
VH: B1 VH with N31G, P53H, D61A
VL: B1 VL with R26S
notes: screened as scFv
B7: suPAR_DB03_A06 (scFv, V domains shown)
VH: B1 VH with Y27F, T28N, F29I, N31D, M34I, D61A
VL: B1 VL with S27Q, V29I
notes: screened as scFv
B8: suPAR_DB02_H06 (scFv, V domains shown)
VH: B1 VH with Y27F, T28N, F29I, T30K, N31D, M34I, N55G, S57N, D61A
VL: B1 VL with S24R
notes: screened as scFv
B9: suPAR_DB02_H07 (scFv, V domains shown)
VH: B1 VH with N31S, M34V, I51V, E54S, N55S, S57A, I59D, D61A
VL: B1 VL
notes: screened as scFv
B10: suPAR_DB02_H09 (scFv, V domains shown)
VH: B1 VH with N31S, S57N, D61A, Y107F
VL: B1 VL with R49A, A54Q
notes: screened as scFv
B11: suPAR_DB01_E12 (scFv, V domains shown)
VH: QVQLVQSGAEVKKPGASVKVSCKASGGTFSSYAISWVRQAPGQGLEWLGVINPGGGGTNYAQKFQGRVTMTRDTSTSTVYMELSSLRSEDTAVYYCARGYDVDWFVTWGQGTLVTVSS
VL: DIQMTQSPSSLSASVGDRVTITCQASQDISNYINWYQQKPGKAPKLLIYDASNLASGVPSRFSGSGSGTDFTLTISSLQPEDFATYYCQQYHSYPPTFGGGTKVEIK
notes: screened as scFv
B12: suPAR_DB01_C04 (scFv, V domains shown)
VH: B1 VH with N31G, N55G
VL: B1 VL
notes: screened as scFv
B13: suPAR_DB01_D04 (scFv, V domains shown)
VH: B1 VH with N31S, P53H, D61A
VL: B1 VL
notes: screened as scFv
B14: suPAR_DB01_F01 (scFv, V domains shown)
VH: B1 VH with N31S, M34V, P53H, D61A
VL: B1 VL
notes: screened as scFv
B15: suPAR_DB01_D10 (scFv, V domains shown)
VH: B1 VH with N31G, P53H, I59S
VL: B1 VL with S27Q
notes: screened as scFv
B16: suPAR_DB01_D01 (scFv, V domains shown)
VH: B1 VH with N31G, P53H, D61A
VL: B1 VL
notes: screened as scFv
B17: suPAR_DB01_C11 (scFv, V domains shown)
VH: B1 VH with Y27G, N31S
VL: B1 VL
notes: screened as scFv
B18: suPAR_DB01_C10 (scFv, V domains shown)
VH: B1 VH with S57N, D61A
VL: B1 VL with S24R, V29I
notes: screened as scFv
B19: suPAR_DB01_C07 (scFv, V domains shown)
VH: B1 VH with N31S, P53H, I59S
VL: B1 VL with S24R, S27Q
notes: screened as scFv
B20: suPAR_DB01_E10 (scFv, V domains shown)
VH: B1 VH with N31G, P53H, I59S
VL: B1 VL with S24R, S27Q
notes: screened as scFv
B21: suPAR_DB01_E01 (scFv, V domains shown)
VH: B1 VH with T28S, N31S, N55G
VL: B1 VL
notes: screened as scFv
B22: suPAR_DB01_D08 (scFv, V domains shown)
VH: B1 VH with N31S, P53H, D61A
VL: B1 VL with S24R, R26S
notes: screened as scFv
B23: suPAR_DB01_E06 (scFv, V domains shown)
VH: B1 VH with T30I, S57N
VL: B1 VL
notes: screened as scFv
B24: suPAR_DB01_E02 (scFv, V domains shown)
VH: B1 VH with N31S, N55G
VL: B1 VL
notes: screened as scFv
B25: suPAR_DB01_E09 (scFv, V domains shown)
VH: B1 VH with N31S, P53H, S57N
VL: B1 VL with V29I, A54Q
notes: screened as scFv
B26: suPAR_DB01_C12 (scFv, V domains shown)
VH: B1 VH with Y27D, N31S, P53H, S57N
VL: B1 VL
notes: screened as scFv
B27: suPAR_DB01_E04 (scFv, V domains shown)
VH: B1 VH with N31G, P53H, S57N
VL: B1 VL with S27Q
notes: screened as scFv
B28: suPAR_DB01_C08 (scFv, V domains shown)
VH: B1 VH with N31G, P53H, S57N, D61A
VL: B1 VL
notes: screened as scFv
B29: suPAR_DB01_D12 (scFv, V domains shown)
VH: B1 VH with N31S
VL: B1 VL
notes: screened as scFv
B30: suPAR_DB01_E08 (scFv, V domains shown)
VH: B1 VH with N31G, M34I, P53H
VL: B1 VL
notes: screened as scFv
B31: suPAR_DB01_E11 (scFv, V domains shown)
VH: B1 VH with P53H, D61A
VL: B1 VL
notes: screened as scFv
B32: suPAR_DB01_D05 (scFv, V domains shown)
VH: B1 VH with N31G, Y32S, M34V, P53H, S57N
VL: B1 VL with S27Q
notes: screened as scFv
B33: suPAR_DB01_D02 (scFv, V domains shown)
VH: B1 VH with N31S, E54N, N55T, S57D, I59N, D61A
VL: B1 VL with S24R
notes: screened as scFv
B34: suPAR_DB01_D03 (scFv, V domains shown)
VH: B1 VH with Y27G, P53H, S57N
VL: B1 VL
notes: screened as scFv
B35: suPAR_DB01_E03 (scFv, V domains shown)
VH: B1 VH with N31D, P53H, S57N, I59S, D61A
VL: B1 VL
notes: screened as scFv
B36: suPAR_DB01_D09 (scFv, V domains shown)
VH: B1 VH with P53H, E54S, S57N, D61A
VL: B1 VL
notes: screened as scFv
B37: suPAR_DB01_C09 (scFv, V domains shown)
VH: B1 VH with Y27F, T28N, F29I, T30K, N31D, M34I, S57N, D61A
VL: B1 VL
notes: screened as scFv
B38: suPAR_DB01_E07 (scFv, V domains shown)
VH: B1 VH with N31S, P53H, S57N
VL: B1 VL with S24R, R26S
notes: screened as scFv

What follows are binders tested against T1, human soluble urokinase plasminogen activator receptor (hsuPAR) (human, UniProt Q03405 23-303, limits assumed) (assay: BLI (Octet) off-rate screen of scFv clones).
T1 construct: Target antigen of the off-rate screen; also called human suPAR; rhuPAR-His
T1 sequence (Q03405 23-303 limits assumed): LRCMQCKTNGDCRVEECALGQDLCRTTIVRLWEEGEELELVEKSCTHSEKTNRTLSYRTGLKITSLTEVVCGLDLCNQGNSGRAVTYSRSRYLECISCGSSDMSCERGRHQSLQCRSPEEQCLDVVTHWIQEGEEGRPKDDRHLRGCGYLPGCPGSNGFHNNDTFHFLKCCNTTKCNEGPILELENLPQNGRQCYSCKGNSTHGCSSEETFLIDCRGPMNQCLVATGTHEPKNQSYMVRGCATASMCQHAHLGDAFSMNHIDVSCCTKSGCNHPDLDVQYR

koff [s⁻¹]	Binder
0.00347	B1
0.00344	B2
0.00485	B3
0.00199	B4
0.0026	B5
0.000306	B6
0.00302	B7
0.00305	B8
0.00317	B9
0.0338	B10

These binders were tested against T2, cynomolgus suPAR (cynomolgus, UniProt Q9GK78 23-303, limits assumed) (assay: BLI (Octet) off-rate screen of scFv clones).
T2 construct: Target antigen of the off-rate screen; also called cynomolgus uPAR; cynoPLAUR-His
T2 sequence (Q9GK78 23-303 limits assumed): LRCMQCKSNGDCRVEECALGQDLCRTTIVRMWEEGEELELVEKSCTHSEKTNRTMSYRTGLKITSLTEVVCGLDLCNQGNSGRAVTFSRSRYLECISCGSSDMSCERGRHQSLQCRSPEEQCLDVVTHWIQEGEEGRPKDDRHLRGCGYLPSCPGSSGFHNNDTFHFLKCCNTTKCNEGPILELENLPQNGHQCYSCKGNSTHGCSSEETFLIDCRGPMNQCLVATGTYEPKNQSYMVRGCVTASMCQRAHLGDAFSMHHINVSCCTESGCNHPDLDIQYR

koff [s⁻¹]	Binder
0.00026	B1
0.000189	B2
0.000228	B3
0.000319	B4
0.000259	B5
0.000269	B6
6.32e-07	B7
0.000393	B8
0.00146	B9
0.00218	B10

Each binder was assayed against T3, cynomolgus soluble urokinase plasminogen activator receptor (suPAR) (cynomolgus, UniProt Q9GK78 23-303, limits assumed) (assay: off-rate (kdis) screen of scFv clones, biosensor (Octet)).
T3 construct: Target antigen of the off-rate screen; also called cynomolgus uPAR; cynomolgus suPAR
T3 sequence (Q9GK78 23-303 limits assumed): as above

koff [s⁻¹]	Binder
0.0212	B11
0.000303	B12
2.53e-05	B13
0.000203	B14
0.000148	B15
0.000369	B16
8.96e-05	B17
0.000266	B18
2.66e-05	B19
0.000104	B20
0.000254	B21
7.01e-07	B22
0.000218	B23
0.000347	B24
0.000246	B25
0.000105	B26
0.00031	B27
0.00042	B28
0.000232	B29
5.85e-07	B30
0.000369	B31
0.000419	B32
0.000343	B33
0.000203	B34
5.44e-05	B35
0.000506	B36
0.000203	B37
6.72e-05	B38

These binders were tested against T4, human soluble urokinase plasminogen activator receptor (suPAR) (human, UniProt Q03405 23-303, limits assumed) in the same assay as above.
T4 construct: Target antigen of the off-rate screen; also called hsuPAR; human suPAR
T4 sequence (Q03405 23-303 limits assumed): as the sequence (Q03405 23-303 limits assumed) above

koff [s⁻¹]	Binder
0.0117	B11
0.00403	B12
0.000872	B13
0.000618	B14
0.00147	B15
0.000531	B16
0.00226	B17
0.00363	B18
0.00164	B19
0.00162	B20
0.00474	B21
0.000666	B22
0.00224	B23
0.00469	B24
0.00446	B25
0.00493	B26
0.0014	B27
0.0013	B28
0.00382	B29
0.000564	B30
0.000638	B31
0.00224	B32
0.00425	B33
0.00362	B34
0.00402	B35
0.00109	B36
0.00476	B37
0.00228	B38

From patent US20250215104A1 (WALDEN BIOSCIENCES, published 2025)
